Data as given in the supplement of paper PMC7125110.
± gives the standard error. This sample holds only a part of the variants without activity.

B1: glmS ribozyme (parent)
chain: AUAAAAGCGCCAGAACUACAGAAAUGUAGUUGACGAGGAGGAGGUUUAUCGAAUUUUCGGCGGAUGCCUCCAAA

How the values were obtained:
Conditions in all cases: with glucosamine-6-phosphate
glucosamine-6-phosphate [1] = variants of: B1; test: self-cleavage kobs at 40 uM GlcN6P; higher = faster cleavage; RNA array
How it was run: (§1)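 Sequenced MiSeq chips were the platform: E. coli RNA polymerase transcribed barcoded ribozyme variants on them in situ, and a hybridised Cy3 probe tracked these at 37 °C. After glucosamine-6-phosphate (40 μM to 10 mM) in HEPES/KCl/Mg(OAc)2 buffer was flowed in, tiles were imaged over ~14 h. Signals normalised to baseline and to non-cleaving reference variants were reduced to per-tile medians and fit to one- or two-exponential decays to obtain kobs. kcat and KM were derived through weighted Michaelis–Menten fits across concentrations.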

glucosamine-6-phosphate [2] = variants of: B1; test: self-cleavage kobs at 2500 uM GlcN6P; higher = faster cleavage; RNA array
How it was run: as §1

glucosamine-6-phosphate [3] = variants of: B1; test: self-cleavage kobs at 10000 uM GlcN6P; higher = faster cleavage; RNA array
How it was run: as §1

glucosamine-6-phosphate [4] = variants of: B1; test: self-cleavage kobs at 160 uM GlcN6P; higher = faster cleavage; RNA array
How it was run: as §1

glucosamine-6-phosphate [5] = variants of: B1; test: self-cleavage kobs at 640 uM GlcN6P; higher = faster cleavage; RNA array
How it was run: as §1

Variant | self-cleavage kobs at 40 uM GlcN6P (glucosamine-6-phosphate [1]) | self-cleavage kobs at 2500 uM GlcN6P (glucosamine-6-phosphate [2]) | self-cleavage kobs at 10000 uM GlcN6P (glucosamine-6-phosphate [3]) | self-cleavage kobs at 160 uM GlcN6P (glucosamine-6-phosphate [4]) | self-cleavage kobs at 640 uM GlcN6P (glucosamine-6-phosphate [5])
U56A G62C | < 1e-05 s⁻¹ | < 1e-05 s⁻¹ | < 1e-05 s⁻¹ | – | –
U57G G63U | < 1e-05 s⁻¹ | < 1e-05 s⁻¹ | < 1e-05 s⁻¹ | < 1e-05 s⁻¹ | –
C58U U65G | < 1e-05 s⁻¹ | – | – | < 1e-05 s⁻¹ | < 1e-05 s⁻¹
U54C G63U A64C | < 1e-05 s⁻¹ | – | < 1e-05 s⁻¹ | – | –
G59A A64C | < 1e-05 s⁻¹ | < 1e-05 s⁻¹ | – | < 1e-05 s⁻¹ | < 1e-05 s⁻¹
U55G G63A | < 1e-05 s⁻¹ | < 1e-05 s⁻¹ | < 1e-05 s⁻¹ | < 1e-05 s⁻¹ | < 1e-05 s⁻¹
U54G C67G | 0.000338 ± 4.2e-05 s⁻¹ | 0.000568 ± 0.00012 s⁻¹ | 0.00398 ± 0.0006 s⁻¹ | 0.000142 ± 4.5e-05 s⁻¹ | 0.00079 ± 0.00024 s⁻¹
G7A A12C U57A | – | < 1e-05 s⁻¹ | – | < 1e-05 s⁻¹ | < 1e-05 s⁻¹
G62U A64U | < 1e-05 s⁻¹ | – | < 1e-05 s⁻¹ | – | < 1e-05 s⁻¹
A6U U45C | – | – | – | < 1e-05 s⁻¹ | < 1e-05 s⁻¹
A64G C68U | < 1e-05 s⁻¹ | 2.62e-05 ± 9e-06 s⁻¹ | 3.13e-05 ± 9.2e-06 s⁻¹ | < 1e-05 s⁻¹ | –
U56G G62A G63A | < 1e-05 s⁻¹ | – | – | – | –
A6G G9U G32C G40U U45A U47G U69C | – | – | – | < 1e-05 s⁻¹ | –
A6C U49A C50U | – | – | – | < 1e-05 s⁻¹ | < 1e-05 s⁻¹
U56A C61U | < 1e-05 s⁻¹ | – | – | < 1e-05 s⁻¹ | –
U55C G63A | < 1e-05 s⁻¹ | < 1e-05 s⁻¹ | < 1e-05 s⁻¹ | < 1e-05 s⁻¹ | –
C61U A64U | < 1e-05 s⁻¹ | < 1e-05 s⁻¹ | < 1e-05 s⁻¹ | < 1e-05 s⁻¹ | < 1e-05 s⁻¹
G66A C71U | 0.000673 ± 0.00012 s⁻¹ | – | 0.0215 ± 0.007 s⁻¹ | – | 0.00361 ± 0.0008 s⁻¹
G59C A64U | < 1e-05 s⁻¹ | – | < 1e-05 s⁻¹ | < 1e-05 s⁻¹ | < 1e-05 s⁻¹
A6G G32U C50G U57G C61A G66U | – | 0.000553 ± 9.8e-05 s⁻¹ | 9.54e-05 ± 1.9e-05 s⁻¹ | 0.000258 ± 4.1e-05 s⁻¹ | –
U54G C71U | 0.00109 ± 0.00015 s⁻¹ | 0.0283 ± 0.0078 s⁻¹ | 0.0636 ± 0.013 s⁻¹ | 0.00194 ± 0.00038 s⁻¹ | 0.00857 ± 0.00098 s⁻¹
U55C G63U U69A | < 1e-05 s⁻¹ | – | < 1e-05 s⁻¹ | – | < 1e-05 s⁻¹

Variant | self-cleavage kobs at 40 uM GlcN6P (glucosamine-6-phosphate [1]) | self-cleavage kobs at 2500 uM GlcN6P (glucosamine-6-phosphate [2]) | self-cleavage kobs at 10000 uM GlcN6P (glucosamine-6-phosphate [3]) | self-cleavage kobs at 160 uM GlcN6P (glucosamine-6-phosphate [4]) | self-cleavage kobs at 640 uM GlcN6P (glucosamine-6-phosphate [5])
A6C C10G A36C U49C A53U A64U | – | – | – | < 1e-05 s⁻¹ | –
U69C C71A | 5.28e-05 ± 2.1e-05 s⁻¹ | 0.000478 ± 9.3e-05 s⁻¹ | – | 0.000113 ± 1.9e-05 s⁻¹ | 0.000587 ± 8.4e-05 s⁻¹
C58A G63U | < 1e-05 s⁻¹ | < 1e-05 s⁻¹ | – | < 1e-05 s⁻¹ | < 1e-05 s⁻¹
A6C G9A U45A | – | – | – | < 1e-05 s⁻¹ | < 1e-05 s⁻¹
A6C G7C A15U | – | < 1e-05 s⁻¹ | – | < 1e-05 s⁻¹ | < 1e-05 s⁻¹
G59U C61G A64G | < 1e-05 s⁻¹ | < 1e-05 s⁻¹ | < 1e-05 s⁻¹ | – | < 1e-05 s⁻¹
C58A C61U G66U | < 1e-05 s⁻¹ | – | – | – | –
U55A C71A | 0.000472 ± 6.9e-05 s⁻¹ | – | 0.0132 ± 0.0032 s⁻¹ | 0.000925 ± 0.00023 s⁻¹ | 0.00299 ± 0.00056 s⁻¹
U55A C71G | 8.5e-05 ± 2.2e-05 s⁻¹ | 0.000736 ± 0.00023 s⁻¹ | 0.00278 ± 0.0012 s⁻¹ | 0.000248 ± 9.2e-05 s⁻¹ | 0.00136 ± 0.00036 s⁻¹
A6U A42C A53C U65G | – | < 1e-05 s⁻¹ | – | < 1e-05 s⁻¹ | < 1e-05 s⁻¹
U54G C68U | 0.000327 ± 2.5e-05 s⁻¹ | 0.0036 ± 0.00084 s⁻¹ | 0.00395 ± 0.00053 s⁻¹ | 0.000869 ± 0.00021 s⁻¹ | 0.000824 ± 0.00012 s⁻¹
A6C A14C G44U U45C | – | < 1e-05 s⁻¹ | – | < 1e-05 s⁻¹ | –
G60U G63A | < 1e-05 s⁻¹ | – | – | < 1e-05 s⁻¹ | –
G60U G63U | < 1e-05 s⁻¹ | – | < 1e-05 s⁻¹ | < 1e-05 s⁻¹ | < 1e-05 s⁻¹
C61U C68G C70A | < 1e-05 s⁻¹ | – | – | – | –
A6C A53U G63A | – | < 1e-05 s⁻¹ | – | < 1e-05 s⁻¹ | < 1e-05 s⁻¹
G59C C61U G66U | < 1e-05 s⁻¹ | – | < 1e-05 s⁻¹ | – | –
A6U U45A A48G | – | – | – | < 1e-05 s⁻¹ | < 1e-05 s⁻¹
U56C C61U C70A C71U | < 1e-05 s⁻¹ | < 1e-05 s⁻¹ | – | – | –
A6U U30G G62U | – | – | – | < 1e-05 s⁻¹ | < 1e-05 s⁻¹
G59A G62C | < 1e-05 s⁻¹ | < 1e-05 s⁻¹ | < 1e-05 s⁻¹ | < 1e-05 s⁻¹ | < 1e-05 s⁻¹
